Results reported in patent publication US20240067728A1 (BIO THERA SOLUTIONS, published 2024).
Read-outs that look alike come from different tables or passages of the source.

How the values were obtained:
CD47-His antigen = target: T1, CD47-His antigen (human, UniProt Q08722 19-139); test: SPR (Biacore), method of Example 5, 1:1 Binding fit
T1 construct: Human CD47 ECD with C-terminal 8xHIS tag, expressed in HEK293F; also called hCD47-His; human CD47-His

[1] = target: T2, human CD47 on CD47-CHO cells (human, UniProt Q08722 19-323); test: FACS on CD47-CHO cells, PE-labeled anti-human Fc secondary antibody; MFI(Mean) against Con(nM)
T2 construct: whole, on cells; also called CHO cells overexpressing human CD47; CD47 expressed on the cell surface
Experimental: (§1) The binding of the exemplary anti-PD-L1/CD47 bispecific antibodies of the present invention to CHO cells overexpressing human PD-L1 or human CD47 was measured by flow cytometry. Briefly, human PD-L1 or human CD47 cDNA was inserted into an expression vector and transfected into Chinese hamster ovary cancer cells (CHO, Invitrogen), resulting in CHO cells overexpressing human PD-L1 or human CD47 (PD-L1-CHO cells or CD47-CHO cells).

[2] = target: T3, human PD-L1 on PD-L1-CHO cells (human, UniProt Q9NZQ7 19-290); test: FACS on PD-L1-CHO cells, PE-labeled anti-human Fc secondary antibody; MFI(Mean) against Con(nM)
T3 construct: whole, on cells; also called CHO cells overexpressing human PD-L1; PD-L1 expressed on the cell surface
Experimental: as §1

[3] = target: T2, human CD47 on CD47-CHO cells; test: FACS on CD47-CHO cells, PE-labeled anti-human Fc secondary antibody; MFI(Mean) against Con(nM); remark: listed apart in the source
Experimental: as §1

[4] = target: T4, CD47 on human T lymphocyte leukemia Jurkat cells (human, UniProt Q08722 19-323); test: FACS on Jurkat cells, PE-labeled anti-human Fc secondary antibody; MFI(Mean) against Con(nM)
T4 construct: whole, on cells; also called tumor cells
Experimental: By using the same method as described above, test samples of the exemplary bispecific antibodies and human T lymphocyte leukemia Jurkat cells were prepared.

[5] = target: T5, CD47 on human red blood cells (human, UniProt Q08722 19-323); test: FACS on human red blood cells, PE-labeled anti-human Fc secondary antibody; MFI(Mean) against Con(nM)
T5 construct: whole, on cells; also called RBC

T3 sequence (Q9NZQ7 19-290): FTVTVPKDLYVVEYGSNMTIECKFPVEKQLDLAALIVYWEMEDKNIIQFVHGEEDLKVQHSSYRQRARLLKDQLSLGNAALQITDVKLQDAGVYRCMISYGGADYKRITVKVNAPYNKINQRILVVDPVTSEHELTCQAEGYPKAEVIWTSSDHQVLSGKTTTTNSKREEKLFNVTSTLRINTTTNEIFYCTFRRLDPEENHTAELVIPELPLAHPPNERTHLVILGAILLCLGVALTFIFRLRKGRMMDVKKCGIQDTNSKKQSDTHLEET

B1: 47-R2-4 (antibody, human IgG1, kappa, V domains shown)
VH: QVQLQESGPGLVKPSETLSLTCTVSGGSLDNYYWSWIRQPPGKGLEWIGYIYYSGNTNYNPSLKSRVTISVDTSKNQFSLKLSSVTAADTAVYYCARGGRFLERYWGQGTLVTVSS
VL: EIVLTQSPSSLSASVGDRVTITCLASQTIGTWLAWYQQKPGKSPQLLIYAASTLQSGVPSRFSGSGSGTDFTLTISSLQPEDVATYYCQQYYSTPRTFGQGTKVEIKR
notes: Anti-CD47 monoclonal antibody, L12-6-VH with light chain R2-4; also called parental anti-CD47 antibody 47-R2-4
Kd (CD47-His antigen): 3.29 nM
EC50 (read off the curve) [1]: ~0.9 nM
binding result [2]: no binding (tested: 10 nM)
EC50 (read off the curve) [3]: ~1 nM
EC50 (read off the curve) [4]: ~0.7 nM
EC50 (read off the curve) [5]: ~3 nM
